Drawing on publication PMC9191892, this text covers percent in ribosomal fractions and percent ribosome associated (H2O2-treated extract) for two molecules.

In assay [1] the target is ribosomes (80S monosomes and polysomes) (S. cerevisiae (endogenous in BY4741)). Description: co-sedimentation; formaldehyde-crosslinked cell extracts (unstressed or H2O2-treated) on 15-50% sucrose gradients, SW41 Ti 2.5 hr at 278,000 x g, 4°C; fractions western blotted. In general terms: Immunoblotting shows a protein as a band on a membrane.
For assay [2] the target is unchanged. Description: co-sedimentation; polysomal proteomics: formaldehyde-crosslinked extracts (unstressed, H2O2, 3-AT) on 15-50% sucrose gradients, fractions F1-F5 against totals by label-free MS; percent ribosome association estimated from the fraction sum to total ratio.

B1: Aat2-TAP (cytosolic aspartate aminotransferase with a C-terminal TAP tag) (enzyme)
chain: MSATLFNNIELLPPDALFGIKQRYGQDQRATKVDLGIGAYRDDNGKPWVLPSVKAAEKLIHNDSSYNHEYLGITGLPSLTSNAAKIIFGTQSDAFQEDRVISVQSLSGTGALHISAKFFSKFFPDKLVYLSKPTWANHMAIFENQGLKTATYPYWANETKSLDLNGFLNAIQKAPEGSIFVLHSCAHNPTGLDPTSEQWVQIVDAIASKNHIALFDTAYQGFATGDLDKDAYAVRLGVEKLSTVSPVFVCQSFAKNAGMYGERVGCFHLALTKQAQNKTIKPAVTSQLAKIIRSEVSNPPAYGAKIVAKLLETPELTEQWHKDMVTMSSRITKMRHALRDHLVKLGTPGNWDHIVNQCGMFSFTGLTPQMVKRLEETHAVYLVASGRASIAGLNQGNVEYVAKAIDEVVRFYTIEAKL
For B1, in assay [1], the percent in ribosomal fractions stood at 10% and the percent ribosome associated (H2O2-treated extract) came to 13%.

B2: Aat2 (cytosolic aspartate aminotransferase), untagged (enzyme)
chain: MSATLFNNIELLPPDALFGIKQRYGQDQRATKVDLGIGAYRDDNGKPWVLPSVKAAEKLIHNDSSYNHEYLGITGLPSLTSNAAKIIFGTQSDAFQEDRVISVQSLSGTGALHISAKFFSKFFPDKLVYLSKPTWANHMAIFENQGLKTATYPYWANETKSLDLNGFLNAIQKAPEGSIFVLHSCAHNPTGLDPTSEQWVQIVDAIASKNHIALFDTAYQGFATGDLDKDAYAVRLGVEKLSTVSPVFVCQSFAKNAGMYGERVGCFHLALTKQAQNKTIKPAVTSQLAKIIRSEVSNPPAYGAKIVAKLLETPELTEQWHKDMVTMSSRITKMRHALRDHLVKLGTPGNWDHIVNQCGMFSFTGLTPQMVKRLEETHAVYLVASGRASIAGLNQGNVEYVAKAIDEVVRFYTIEAKL
For the molecule B2, the percent ribosome associated (H2O2-treated extract) in assay [2] is 9%.
